Among the data in article PMC6386614 are Kd values, retold here.

The series concerns the target T1, hnRNP H1-His6 (UniProt P31943 1-449).
T1 sequence: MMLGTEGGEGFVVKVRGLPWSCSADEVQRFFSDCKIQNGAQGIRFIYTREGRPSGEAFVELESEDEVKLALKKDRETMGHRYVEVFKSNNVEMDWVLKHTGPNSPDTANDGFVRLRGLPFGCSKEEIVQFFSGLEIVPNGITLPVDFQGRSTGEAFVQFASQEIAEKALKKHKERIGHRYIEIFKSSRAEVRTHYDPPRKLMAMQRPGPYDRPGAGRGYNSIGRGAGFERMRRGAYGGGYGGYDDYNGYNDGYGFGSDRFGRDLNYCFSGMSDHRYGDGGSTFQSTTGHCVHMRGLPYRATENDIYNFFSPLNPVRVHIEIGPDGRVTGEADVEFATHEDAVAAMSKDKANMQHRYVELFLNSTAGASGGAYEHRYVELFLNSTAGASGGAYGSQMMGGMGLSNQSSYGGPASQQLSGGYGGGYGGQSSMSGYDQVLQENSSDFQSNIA
Nature of the series: EMSA.

B1: r(G4C2)8 (32P) (structured_RNA)
RNA: GGGGCCGGGGCCGGGGCCGGGGCCGGGGCCGGGGCCGGGGCCGGGGCC
The term Kd denotes a measure of binding affinity in units of concentration. Low values mean a tighter complex, high ones a looser complex. On to B1, for which the affinity, expressed as Kd, was 65 ± 26 nM.
